Data reported in article PMC3866193.

How the values were obtained:
[1] = target: EGFP-GluA2 ATD fusion protein; assay: AUC; fluorescence-detected sedimentation velocity (FDS-SV), dilution series of labeled protein (Figure 3); 50,000 rpm, 20°C; 20 mM Na phosphate pH 7.5, 150 mM NaCl, 1 mM EDTA, 0.1 mg/mL BSA carrier; sw isotherm fitted with a monomer-dimer model; dimer to monomers
[2] = target: Alexa Fluor 568-labeled GluA2 amino terminal domain; assay: FRET or BRET; kinetic FRET in a spectrofluorometer, 20°C, excitation 495 nm, emission 603 nm; 50 nM donor-labeled and 50 nM AF568-labeled GluA2 ATD pre-equilibrated (30 min DL488, 60 min FAM), then 1 µM unlabeled GluA2 ATD added; decay fitted with exponential functions
Sequence of Alexa Fluor 568-labeled GluA2 amino terminal domain (P19491 whole entry, the tested form may be a part): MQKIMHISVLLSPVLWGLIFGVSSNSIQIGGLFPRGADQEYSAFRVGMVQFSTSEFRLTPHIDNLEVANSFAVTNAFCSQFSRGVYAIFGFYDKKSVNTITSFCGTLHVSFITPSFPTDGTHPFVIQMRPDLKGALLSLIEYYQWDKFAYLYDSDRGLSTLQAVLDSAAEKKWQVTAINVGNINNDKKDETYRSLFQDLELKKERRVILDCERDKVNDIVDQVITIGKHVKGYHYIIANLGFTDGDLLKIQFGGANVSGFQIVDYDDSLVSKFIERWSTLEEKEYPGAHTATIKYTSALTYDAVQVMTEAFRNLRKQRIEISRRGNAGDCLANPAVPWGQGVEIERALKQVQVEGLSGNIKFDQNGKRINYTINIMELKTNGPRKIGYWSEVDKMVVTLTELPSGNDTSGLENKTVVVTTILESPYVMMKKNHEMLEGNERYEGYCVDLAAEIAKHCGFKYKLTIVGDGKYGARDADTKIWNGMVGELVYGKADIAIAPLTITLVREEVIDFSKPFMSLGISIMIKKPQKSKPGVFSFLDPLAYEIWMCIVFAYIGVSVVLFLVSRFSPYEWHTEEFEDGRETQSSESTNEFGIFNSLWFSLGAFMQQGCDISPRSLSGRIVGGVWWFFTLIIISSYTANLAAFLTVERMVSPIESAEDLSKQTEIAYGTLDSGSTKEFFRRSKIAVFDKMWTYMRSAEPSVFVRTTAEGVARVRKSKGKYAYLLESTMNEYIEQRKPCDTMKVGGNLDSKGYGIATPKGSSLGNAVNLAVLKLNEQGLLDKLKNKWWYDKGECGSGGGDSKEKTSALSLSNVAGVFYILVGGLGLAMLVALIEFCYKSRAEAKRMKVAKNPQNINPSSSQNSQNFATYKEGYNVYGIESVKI

B1: EGFP-GluA2 ATD fusion protein (domain or fragment)
chain: NSIQIGGLFPRGADQEYSAFRVGMVQFSTSEFRLTPHIDNLEVANSFAVTNAFCSQFSRGVYAIFGFYDKKSVNTITSFCGTLHVSFITPSFPTDGTHPFVIQMRPDLKGALLSLIEYYQWDKFAYLYDSDRGLSTLQAVLDSAAEKKWQVTAINVGNINNDKKDETYRSLFQDLELKKERRVILDCERDKVNDIVDQVITIGKHVKGYHYIIANLGFTDGDLLKIQFGGANVSGFQIVDYDDSLVSKFIERWSTLEEKEYPGAHTATIKYTSALTYDAVQVMTEAFRNLRKQRIEISRRGNAGDCLANPAVPWGQGVEIERALKQVQVEGLSGNIKFDQNGKRINYTINIMELKTNGPRKIGYWSEVDKMVVTLTELPS
modifications: not checked
B1 showed a Kd [1] of 25.4 nM, a stoichiometry N [1] of 2 and a half life of the donor/acceptor heterodimer (single-exponential decay) [2] of 3.27 min.
